B1: CRT3LP: PASylated L-ASNase fused with CRT-targeting CRT3 monobody at N-terminus and PAS200 tag plus His6 tag at C-terminus (protein)
chain: MASVSDVPRDLEVVAATPTSLLISWKLGFFKRYYRITYGETGGNSPVQEFTVPGSKSTATISGLKPGVDYTITVYAVTGQPMYGQPMYPISINYRTSGGGGSGGGGSEFLPNITILATGGTIAGGGDSATKSNYTAGKVGVENLVNAVPQLKDIANVKGEQVVNIGSQDMNDDVWLTLAKKINTDCDKTDGFVITHGTDTMEETAYFLDLTVKCDKPVVMVGAMRPSTSMSADGPFNLYNAVVTAADKASANRGVLVVMNDTVLDGRDVTKTNTTDVATFKSVNYGPLGYIHNGKIDYQRTPARKHTSDTPFDVSKLNELPKVGIVYNYANASDLPAKALVDAGYDGIVSAGVGNGNLYKTVFDTLATAAKNGTAVVRSSRVPTGATTQDVEVDDAKYGFVASGTLNPQKARVLLQLALTQTKDPQQIQQIFNQYGSSGGGGSGGGGSASPAAPAPASPAAPAPSAPAASPAAPAPASPAAPAPSAPAASPAAPAPASPAAPAPSAPAASPAAPAPASPAAPAPSAPAASPAAPAPASPAAPAPSAPAASPAAPAPASPAAPAPSAPAASPAAPAPASPAAPAPSAPAASPAAPAPASPAAPAPSAPAASPAAPAPASPAAPAPSAPAASPAAPAPASPAAPAPSAPAAGSHHHHHH
B2: CRT4LP: PASylated L-ASNase fused with CRT-targeting CRT4 monobody at N-terminus and PAS200 tag plus His6 tag at C-terminus (protein)
chain: MASVSDVPRDLEVVAATPTSLLISWGQPMYGQPMYYYRITYGETGGNSPVQEFTVPGSKSTATISGLKPGVDYTITVYAVTKLGFFKRPISINYRTSGGGGSGGGGSEFLPNITILATGGTIAGGGDSATKSNYTAGKVGVENLVNAVPQLKDIANVKGEQVVNIGSQDMNDDVWLTLAKKINTDCDKTDGFVITHGTDTMEETAYFLDLTVKCDKPVVMVGAMRPSTSMSADGPFNLYNAVVTAADKASANRGVLVVMNDTVLDGRDVTKTNTTDVATFKSVNYGPLGYIHNGKIDYQRTPARKHTSDTPFDVSKLNELPKVGIVYNYANASDLPAKALVDAGYDGIVSAGVGNGNLYKTVFDTLATAAKNGTAVVRSSRVPTGATTQDVEVDDAKYGFVASGTLNPQKARVLLQLALTQTKDPQQIQQIFNQYGSSGGGGSGGGGSASPAAPAPASPAAPAPSAPAASPAAPAPASPAAPAPSAPAASPAAPAPASPAAPAPSAPAASPAAPAPASPAAPAPSAPAASPAAPAPASPAAPAPSAPAASPAAPAPASPAAPAPSAPAASPAAPAPASPAAPAPSAPAASPAAPAPASPAAPAPSAPAASPAAPAPASPAAPAPSAPAASPAAPAPASPAAPAPSAPAAGSHHHHHH

Legend:
ecto-CRT on CT-26 cells = target: T1, ecto-CRT on CT-26 cells (Mus musculus, UniProt P14211); experiment: Confocal immunofluorescence staining of CT-26 cells; assay type: cell-based; parameters: endogenous in cells; host or cells: CT-26 and MC-38 mouse colon cancer cells (in culture, or CT-26 tumors in mice)
T1 sequence (P14211 18-416): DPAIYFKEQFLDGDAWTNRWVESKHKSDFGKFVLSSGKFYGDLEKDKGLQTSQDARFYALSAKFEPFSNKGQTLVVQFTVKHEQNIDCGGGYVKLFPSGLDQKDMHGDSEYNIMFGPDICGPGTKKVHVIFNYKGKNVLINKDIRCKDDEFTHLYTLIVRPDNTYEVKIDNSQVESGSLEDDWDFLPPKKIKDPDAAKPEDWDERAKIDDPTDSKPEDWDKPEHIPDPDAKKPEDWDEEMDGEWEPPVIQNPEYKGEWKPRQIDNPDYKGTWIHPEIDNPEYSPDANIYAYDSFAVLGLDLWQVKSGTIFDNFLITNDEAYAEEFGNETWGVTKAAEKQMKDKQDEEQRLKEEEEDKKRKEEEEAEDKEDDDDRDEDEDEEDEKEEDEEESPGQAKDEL
Description: PASylated CRT-targeted L-ASNases bound to ecto-CRT on cells were visualized by confocal immunofluorescence microscopy with reference to the prior art (Y. Zhang, et al., Cancers, 13(11), 2801, 2021). After overnight incubation in a cover-glass, CT-26 and MC-38 cells (104) were treated with anticancer agents for 4 h at 37° C. The cells were then fixed with 1% PFA for 15 min, stained with 100 nM PASylated recombinant proteins for 1 h on ice, and treated with anti-His tagged monobodies (diluted to 1:1000) and Alexa Fluor 488-conjugated secondary antibody for 1 h (5 μg/mL). Cell membranes were stained with Alexa Fluor 555-conjugated wheat germ agglutinin (WGA) (diluted to 1:5000). Between each step, samples were washed with cold T-PBS. Finally, the cells were incubated with 4′,6-diamidino-2-phenylindole (DAPI) (Thermo Fisher Scientific, USA) to stain the nuclei. Immunofluorescence signals were imaged using an LSM510 confocal microscope (ZEISS, Jena, Germany) and data were analyzed with ZEN-LSM imaging software (ZEISS, Jena, Germany).

[1] = In vivo pharmacokinetic analysis; parameters: species or system BALB/c mice; details: 10 IU intravenous, mouse serum
Description: Six-week-old female BALB/c mice (Orient Company, Korea) were randomly assigned to different treatment groups (n=3) and intravenously injected with 10 IU of PASylated recombinant protein. Then, blood samples were taken from the eyes at the specified time (0-52 h) and left at 4° C. for 40 min. After centrifugation at 12,000 rpm for 20 min, the serum fraction was obtained and stored at −80° C. before further analysis. PASylated recombinant protein in serum was assessed using the ELISA method described above. The amount of serum recombinant protein was converted to enzyme activity.

[2] = target: T2, recombinant calreticulin protein (rCRT) (Homo sapiens, UniProt P27797); experiment: Binding affinity of recombinant proteins for CRT by ELISA; details: for Kd: ELISA, read-out: dissociation constant (Kd) for CRT; for affinity for CRT relative to single CRT3/CRT4 monobody: compared with monobodies of Zhang et al. 2021
T2 construct: purchased Abcam
T2 sequence (P27797 18-417): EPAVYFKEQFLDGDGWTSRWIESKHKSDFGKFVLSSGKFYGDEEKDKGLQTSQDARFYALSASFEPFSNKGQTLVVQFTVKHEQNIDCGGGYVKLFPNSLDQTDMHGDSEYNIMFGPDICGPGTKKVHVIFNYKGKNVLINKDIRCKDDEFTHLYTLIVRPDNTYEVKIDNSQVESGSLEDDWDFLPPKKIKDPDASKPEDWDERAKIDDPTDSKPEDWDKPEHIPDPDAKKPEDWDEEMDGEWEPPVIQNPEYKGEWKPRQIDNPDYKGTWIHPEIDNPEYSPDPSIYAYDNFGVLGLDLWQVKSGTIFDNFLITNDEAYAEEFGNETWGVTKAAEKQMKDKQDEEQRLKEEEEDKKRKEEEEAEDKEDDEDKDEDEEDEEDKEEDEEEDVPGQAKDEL
Description: The affinity of the recombinant protein for CRT was measured by enzyme-linked immunosorbent analysis (ELISA) (J. D. Beatty, et al., Journal of immunological methods 100(1-2), 173-179, 1987). In brief, 100 μL of PASylated CRT-targeted L-ASNases coated onto 96-well microplates (0-10 μM/well) overnight at 4° C. Unbound proteins were removed by aspiration from the wells and 100 μL of 10 μM rCRT proteins were added to each well and incubated for 2 h at room temperature. After rCRTs were removed, rabbit anti-CRT antibodies (diluted to 1:500) were added to each well and incubated for 2 h at room temperature. The antibodies were removed by aspiration, and the wells were washed five times with T-PBS. Then, biotin-conjugated anti-rabbit secondary antibodies (diluted to 1:1000) were added and incubated for 1 h. After washing with T-PBS, 100 μL of avidin-HRP (diluted to 1:250) was added to each well and incubated for 30 minutes at room temperature. After aspiration and washing five times, 100 μL of 1×3,3′,5,5′-tetramethylbenzidine (TMB) buffer (Thermo Fisher Scientific, USA) was added to each well to form a […] reaction product. After 15 minutes, 50 μL of 0.5 M H2SO4 solution was added to each well to stop the chromogenic reaction. The amount of colorimetric product was evaluated as the optical density value at 450 nm (OD450) by a SpectraMax M2 microtiter plate reader (Molecular Devices, USA).

[3] = CT-26 cells treated with DOX or MTX

Row | Molecule | immunofluorescence staining, binding to cells (ecto-CRT on CT-26 cells; [3]) | immunofluorescence staining, binding to cells (ecto-CRT on CT-26 cells; CT-26 cells treated with GEM) | half-life [1] [h] | Kd [2] [nM] | affinity for CRT relative to single CRT3/CRT4 monobody [2]
1 | B1 | only bound | not | 9.34 ± 0.91 | 2.07 ± 0.173 | four times higher
2 | B2 | only bound | not | – | 2.3 ± 0.166 | four times higher

— patent publication US20250376507A1, “NOVEL TUMOR ANTIGEN-TARGETING ANTICANCER AGENT” (INDUSTRY FOUNDATION OF CHONNAM NATIONAL UNIVERSITY, priority 2022, published 2025)
